Laboratory results: US20210284725A1 (Genentech, published 2021)

T1: human IL-33 (His-tagged) (human, UniProt O95760 112-270, limits assumed)
T1 construct: not shown: His tag
T1 sequence (looked up): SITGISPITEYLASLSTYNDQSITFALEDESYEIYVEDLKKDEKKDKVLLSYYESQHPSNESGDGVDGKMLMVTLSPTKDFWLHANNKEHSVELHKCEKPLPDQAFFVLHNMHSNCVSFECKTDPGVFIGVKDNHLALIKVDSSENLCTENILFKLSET

T2: human IL-33 (human, UniProt O95760 112-270, limits assumed)
T2 sequence (looked up): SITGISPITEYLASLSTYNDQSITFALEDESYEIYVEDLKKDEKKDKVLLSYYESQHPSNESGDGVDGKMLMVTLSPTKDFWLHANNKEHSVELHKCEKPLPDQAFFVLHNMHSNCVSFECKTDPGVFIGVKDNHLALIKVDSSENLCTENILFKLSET


Key:
[1] = target: T1, human IL-33 (His-tagged); assay: SPR Biacore T200, IgG captured on protein A chip, His-tagged human IL-33 analyte, 25 C, n=2; column head prints 'KD (nM)' but the E-notation cells are in M, unit corrected to M
Method: A protein A sensorchip (GE Healthcare) was used following manufacturer provided protocols to capture humanized anti-IL-33 antibodies using a BIACORE® T200 instrument (GE). Antibody binding was measured to human IL-33 (His-tagged) using multi-cycle kinetics. Sensorgrams for binding of IL-33 were recorded using an injection time of 2 min with a flow rate of 30 μl/min, at a temperature of 25° C., and with a running buffer of 10 mM HEPES, pH 7.4, 150 mM NaCl, 3 mM EDTA, and 0.005% TWEEN620. After injection, disassociation of IL-33 from the antibody was monitored for 10 min in running buffer. The surface was regenerated between binding cycles with a 30 μl injection of 10 mM Glycine HCl pH 1.5. After subtraction of a blank which contained running buffer only, sensorgrams observed for cytokine binding to anti-IL-33 antibody were analyzed using a 1:1 Langmuir binding model with software supplied by the manufacturer to calculate the kinetics and binding constants.

[2] = target: T2, human IL-33; assay: cell-based or functional assay

Row | Binder | Kd [1] [nM] | IC50 (M), IL-33 neutralization activity, HEK-BLUE IL-33 cells, human IL-33 at 160 pM [2] [M]
1 | 1E1v10 (antibody, human IgG1, V domains shown, Humanized 1E1 variant, human IgG1 backbone, expressed in Expi293F) VH: EVQLVESGGGLVQPGGSLRLSCAASGFTFNNYWMTWVRQAPGKGLEWVASITYTGGGTYYPDSVKGRFTISRDDAKSSLYLQMNSLRAEDTAVYYCTRANYYYNTYGGFPYWGQGTLVTVSS VL: DIQMTQSPSSLSASVGDRVTITCLASEGFSNDLAWYQQKPGKAPKSLIYAASRLQDGVPSRFSGSGSGTDFTLTISSLQPEDFATYFCQQGSKYPLTFGGGTKVEIK | 0.121 | –
2 | 1E1v15 (antibody, human IgG1, V domains shown, Humanized 1E1 variant, human IgG1 backbone, expressed in Expi293F) VH: EVQLVESGGGLVQPGGSLRLSCAASGFTFNNYWMTWVRQAPGKGLEWVASITYTGGGTYYPDSVKGRFTISRDDAKSSLYLQMNSLRAEDTAVYYCTRANYYYNTYGGFPYWGQGTLVTVSS VL: DIQMTQSPSSLSASVGDRVTITCLASEGFSNDLAWFQQKPGKAPKSLIYAASRLQDGVPSRFSGSGSGTDFTLTISSLQPEDFATYFCQQGSKYPLTFGGGTKVEIK | 0.195 | –
3 | 1E1v1 (antibody, human IgG1, V domains shown, Humanized 1E1 variant, human IgG1 backbone, expressed in Expi293F) VH: EVQLVESGGGLVQPGGSLRLSCAASGFTFNNYWMTWVRQAPGKGLEWVASITYTGGGTYYPDSVKGRFTISRDNAKNSLYLQMNSLRAEDTAVYYCTRANYYYNTYGGFPYWGQGTLVTVSS VL: DIQMTQSPSSLSASVGDRVTITCLASEGFSNDLAWFQQKPGKAPKSLIYAASRLQDGVPSRFSGSGSGTDFTLTISSLQPEDFATYYCQQGSKYPLTFGGGTKVEIK | 0.295 | –
4 | 1E1v23 (antibody, human IgG1, V domains shown, Humanized 1E1 variant, human IgG1 backbone, expressed in Expi293F) VH: EVQLVESGGGLVQPGGSLRLSCAASGFTFNNYWMTWVRQAPGKGLEWIASITYTGGGTYYPDSVKGRFTISRDDAKSSLYLQMNSLRAEDTAVYYCTRANYYYNTYGGFPYWGQGTLVTVSS VL: DIQMTQSPSSLSASVGDRVTITCLASEGFSNDLAWYQQKPGKAPKSLIYAASRLQDGVPSRFSGSGSGTDFTLTISSLQPEDFATYYCQQGSKYPLTFGGGTKVEIK | 0.151 | –
5 | 1E1v18 (antibody, human IgG1, V domains shown, Humanized 1E1 variant, human IgG1 backbone, expressed in Expi293F) VH: EVQLVESGGGLVQPGGSLRLSCAASGFTFNNYWMTWVRQAPGKGLEWIASITYTGGGTYYPDSVKGRFTISRDDAKSSLYLQMNSLRAEDTAVYYCTRANYYYNTYGGFPYWGQGTLVTVSS VL: DIQMTQSPSSLSASVGDRVTITCLASEGFSNDLAWFQQKPGKAPKSLIYAASRLQDGVPSRFSGSGSGTDFTLTISSLQPEDFATYFCQQGSKYPLTFGGGTKVEIK | 0.172 | –
6 | 1E1v7 (antibody, human IgG1, V domains shown, Humanized 1E1 variant, human IgG1 backbone, expressed in Expi293F) VH: EVQLVESGGGLVQPGGSLRLSCAASGFTFNNYWMTWVRQAPGKGLEWVASITYTGGGTYYPDSVKGRFTISRDNAKSSLYLQMNSLRAEDTAVYYCTRANYYYNTYGGFPYWGQGTLVTVSS VL: DIQMTQSPSSLSASVGDRVTITCLASEGFSNDLAWYQQKPGKSPKLLIYAASRLQDGVPSRFSGSGSGTDFTLTISSLQPEDFATYFCQQGSKYPLTFGGGTKVEIK | 0.144 | –
7 | 1E1v4 (antibody, human IgG1, V domains shown, Humanized 1E1 variant, human IgG1 backbone, expressed in Expi293F) VH: EVQLVESGGGLVQPGGSLRLSCAASGFTFNNYWMTWIRQAPGKGLEWIASITYTGGGTYYPDSVKGRFTISRDDAKSSLYLQMNSLRAEDTAVYYCTRANYYYNTYGGFPYWGQGTLVTVSS VL: DIQMTQSPSSLSASVGDRVTITCLASEGFSNDLAWYQQKPGKSPKLLIYAASRLQDGVPSRFSGSGSGTDFTLTISSLQPEDFATYFCQQGSKYPLTFGGGTKVEIK | 0.154 | 3.11e-11
8 | 1E1v22 (antibody, human IgG1, V domains shown, Humanized 1E1 variant, human IgG1 backbone, expressed in Expi293F) VH: EVQLVESGGGLVQPGGSLRLSCAASGFTFNNYWMTWVRQAPGKGLEWVASITYTGGGTYYPDSVKGRFTISRDNAKSSLYLQMNSLRAEDTAVYYCTRANYYYNTYGGFPYWGQGTLVTVSS VL: DIQMTQSPSSLSASVGDRVTITCLASEGFSNDLAWYQQKPGKAPKSLIYAASRLQDGVPSRFSGSGSGTDFTLTISSLQPEDFATYYCQQGSKYPLTFGGGTKVEIK | 0.146 | –
9 | 1E1v12 (antibody, human IgG1, V domains shown, Humanized 1E1 variant, human IgG1 backbone, expressed in Expi293F) VH: EVQLVESGGGLVQPGGSLRLSCAASGFTFNNYWMTWVRQAPGKGLEWVASITYTGGGTYYPDSVKGRFTISRDNAKSSLYLQMNSLRAEDTAVYYCTRANYYYNTYGGFPYWGQGTLVTVSS VL: DIQMTQSPSSLSASVGDRVTITCLASEGFSNDLAWYQQKPGKAPKSLIYAASRLQDGVPSRFSGSGSGTDFTLTISSLQPEDFATYFCQQGSKYPLTFGGGTKVEIK | 0.163 | 2.44e-11
10 | 1E1v14 (antibody, human IgG1, V domains shown, Humanized 1E1 variant, human IgG1 backbone, expressed in Expi293F) VH: EVQLVESGGGLVQPGGSLRLSCAASGFTFNNYWMTWIRQAPGKGLEWIASITYTGGGTYYPDSVKGRFTISRDDAKSSLYLQMNSLRAEDTAVYYCTRANYYYNTYGGFPYWGQGTLVTVSS VL: DIQMTQSPSSLSASVGDRVTITCLASEGFSNDLAWFQQKPGKAPKSLIYAASRLQDGVPSRFSGSGSGTDFTLTISSLQPEDFATYFCQQGSKYPLTFGGGTKVEIK | 0.163 | –
11 | 1E1v2 (antibody, human IgG1, V domains shown, Humanized 1E1 variant, human IgG1 backbone, expressed in Expi293F) VH: EVQLVESGGGLVQPGGSLRLSCAASGFTFNNYWMTWIRQAPGKGLEWIASITYTGGGTYYPDSVKGRFTISRDDAKSSLYLQMNSLRAEDTAVYYCTRANYYYNTYGGFPYWGQGTLVTVSS VL: DIQMTQSPSSLSASVGDRVTITCLASEGFSNDLAWFQQKPGKAPKSLIYAASRLQDGVPSRFSGSGSGTDFTLTISSLQPEDFATYYCQQGSKYPLTFGGGTKVEIK | 0.203 | –
12 | 1E1v5 (antibody, human IgG1, V domains shown, Humanized 1E1 variant, human IgG1 backbone, expressed in Expi293F) VH: EVQLVESGGGLVQPGGSLRLSCAASGFTFNNYWMTWVRQAPGKGLEWVASITYTGGGTYYPDSVKGRFTISRDDAKSSLYLQMNSLRAEDTAVYYCTRANYYYNTYGGFPYWGQGTLVTVSS VL: DIQMTQSPSSLSASVGDRVTITCLASEGFSNDLAWYQQKPGKSPKLLIYAASRLQDGVPSRFSGSGSGTDFTLTISSLQPEDFATYFCQQGSKYPLTFGGGTKVEIK | 0.144 | –
13 | 1E1v17 (antibody, human IgG1, V domains shown, Humanized 1E1 variant, human IgG1 backbone, expressed in Expi293F) VH: EVQLVESGGGLVQPGGSLRLSCAASGFTFNNYWMTWVRQAPGKGLEWVASITYTGGGTYYPDSVKGRFTISRDNAKSSLYLQMNSLRAEDTAVYYCTRANYYYNTYGGFPYWGQGTLVTVSS VL: DIQMTQSPSSLSASVGDRVTITCLASEGFSNDLAWFQQKPGKAPKSLIYAASRLQDGVPSRFSGSGSGTDFTLTISSLQPEDFATYFCQQGSKYPLTFGGGTKVEIK | 0.285 | –

Continued by falling Kd [1], values first:

Row | Kd [1] [nM] | IC50 (M), IL-33 neutralization activity, HEK-BLUE IL-33 cells, human IL-33 at 160 pM [2] [M] | Binder
14 | 0.179 | – | 1E1v16 (antibody, human IgG1, V domains shown, Humanized 1E1 variant, human IgG1 backbone, expressed in Expi293F) VH: EVQLVESGGGLVQPGGSLRLSCAASGFTFNNYWMTWVRQAPGKGLEWVASITYTGGGTYYPDSVKGRFTISRDDAKNSLYLQMNSLRAEDTAVYYCTRANYYYNTYGGFPYWGQGTLVTVSS VL: DIQMTQSPSSLSASVGDRVTITCLASEGFSNDLAWFQQKPGKAPKSLIYAASRLQDGVPSRFSGSGSGTDFTLTISSLQPEDFATYFCQQGSKYPLTFGGGTKVEIK
15 | 0.149 | – | 1E1v3 (antibody, human IgG1, V domains shown, Humanized 1E1 variant, human IgG1 backbone, expressed in Expi293F) VH: EVQLVESGGGLVQPGGSLRLSCAASGFTFNNYWMTWVRQAPGKGLEWVASITYTGGGTYYPDSVKGRFTISRDNAKNSLYLQMNSLRAEDTAVYYCTRANYYYNTYGGFPYWGQGTLVTVSS VL: DIQMTQSPSSLSASVGDRVTITCLASEGFSNDLAWYQQKPGKSPKLLIYAASRLQDGVPSRFSGSGSGTDFTLTISSLQPEDFATYFCQQGSKYPLTFGGGTKVEIK
16 | 0.132 | – | 1E1v6 (antibody, human IgG1, V domains shown, Humanized 1E1 variant, human IgG1 backbone, expressed in Expi293F) VH: EVQLVESGGGLVQPGGSLRLSCAASGFTFNNYWMTWVRQAPGKGLEWVASITYTGGGTYYPDSVKGRFTISRDDAKNSLYLQMNSLRAEDTAVYYCTRANYYYNTYGGFPYWGQGTLVTVSS VL: DIQMTQSPSSLSASVGDRVTITCLASEGFSNDLAWYQQKPGKSPKLLIYAASRLQDGVPSRFSGSGSGTDFTLTISSLQPEDFATYFCQQGSKYPLTFGGGTKVEIK
17 | 0.129 | 3.05e-11 | 1E1v9 (antibody, human IgG1, V domains shown, Humanized 1E1 variant, human IgG1 backbone, expressed in Expi293F) VH: EVQLVESGGGLVQPGGSLRLSCAASGFTFNNYWMTWIRQAPGKGLEWIASITYTGGGTYYPDSVKGRFTISRDDAKSSLYLQMNSLRAEDTAVYYCTRANYYYNTYGGFPYWGQGTLVTVSS VL: DIQMTQSPSSLSASVGDRVTITCLASEGFSNDLAWYQQKPGKAPKSLIYAASRLQDGVPSRFSGSGSGTDFTLTISSLQPEDFATYFCQQGSKYPLTFGGGTKVEIK
18 | 0.123 | – | 1E1v11 (antibody, human IgG1, V domains shown, Humanized 1E1 variant, human IgG1 backbone, expressed in Expi293F) VH: EVQLVESGGGLVQPGGSLRLSCAASGFTFNNYWMTWVRQAPGKGLEWVASITYTGGGTYYPDSVKGRFTISRDDAKNSLYLQMNSLRAEDTAVYYCTRANYYYNTYGGFPYWGQGTLVTVSS VL: DIQMTQSPSSLSASVGDRVTITCLASEGFSNDLAWYQQKPGKAPKSLIYAASRLQDGVPSRFSGSGSGTDFTLTISSLQPEDFATYFCQQGSKYPLTFGGGTKVEIK
19 | 0.118 | 3.11e-11 | 1E1v8 (human IgG1) (antibody, V domains shown) VH: EVQLVESGGGLVQPGGSLRLSCAASGFTFNNYWMTWIRQAPGKGLEWVASITYTGGGTYYPDSVKGRFTISRDDAKSSLYLQMNSLRAEDTAVYYCTRANYYYNTYGGFPYWGQGTLVTVSS VL: DIQMTQSPSSLSASVGDRVTITCLASEGFSNDLAWYQQKPGKSPKLLIYAASRLQDGVPSRFSGSGSGTDFTLTISSLQPEDFATYFCQQGSKYPLTFGGGTKVEIK
